B1: E3 ubiquitin-protein ligase RHA2A (Arabidopsis thaliana (Mouse-ear cress)), Q9ZT50 (parent)
chain: MGLQGQLSDVSSDSIPLMLLSLLAVFINHLRSFLLRLTSKSNPNLPVDDVSIASGLANIIVLADQLSLNRLFSYRCGDGGGGGSDCVVCLSKLKEGEEVRKLECRHVFHKKCLEGWLHQFNFTCPLCRSALVSDDCVSKTQRSVGRDLISCFSLH
partner: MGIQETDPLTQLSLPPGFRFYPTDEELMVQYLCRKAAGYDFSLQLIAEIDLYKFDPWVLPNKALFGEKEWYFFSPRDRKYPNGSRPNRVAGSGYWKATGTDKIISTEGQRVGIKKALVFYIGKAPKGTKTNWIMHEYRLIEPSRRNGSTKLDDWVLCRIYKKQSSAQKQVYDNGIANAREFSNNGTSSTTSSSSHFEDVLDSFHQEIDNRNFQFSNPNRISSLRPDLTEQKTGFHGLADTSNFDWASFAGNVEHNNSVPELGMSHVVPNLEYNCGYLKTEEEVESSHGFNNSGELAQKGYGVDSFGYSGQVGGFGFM

Variants of: B1
Settings: with nac19_arath NAC019, Q9C932

Row | Variant | effect of a mutation on the interaction
1 | MGLQGQLSDVSSDSIPLMLLSLLAVFINHLRSFLLRLTSKSNPNLPVDDVSIASGLANIIVLADQLSLNRLFSYRCGDGGGGGSDCVVCLSKLKEGEEVRKLPCRHVFHKKCLEGWLHQFNFTCPLCRSALVSDDCVSKTQRSVGRDLISCFSLH [E103P] | decreasing interaction
2 | MGLQGQLSDVSSDSIPLMLLSLLAVFINHLRSFLLRLTSKSNPNLPVDDVSIASGLANIIVLADQLSLNRLFSYRCGDGGGGGSDCVVSLSKLKEGEEVRKLECRHVFHKKCLEGWLHQFNFTCPLCRSALVSDDCVSKTQRSVGRDLISCFSLH [C89S] | decreasing interaction

Reference: IntAct's records for PubMed 12646039
